For experiment [1], the system named is 293T cells. As to the kind of experiment: Apoptosis assay, CIDE transfection. Format: cell-based, human. On the procedure: Apoptosis Assays, fluorescence staining of nuclear DNA and DNA fragmentation assay: 5×10^5 293T cells were co-transfected with 0.2 μg of pcDNA3-β-gal plus each expression plasmid in triplicate by the calcium phosphate method as reported [N. Inohara et al, “CLARP, a death effector domain-containing protein interacts with caspase-8 and regulates apoptosis,” Proc. Natl. Acad. Sci. USA 94:10717-10722 (1997a)].
MCF7 were cotransfected with vector control or CIDE-A and β-galactosidase-expressing reporter construct by Lipofectamine (Gibco BRL) according to the manufacturer's instructions. In some experiments, 20 μM zVAD-fmk (benzyloxycarbonyl-Val-Ala-Asp-(OMe)-fluoromethylketone), zFA-fmk (benzyloxycarbonyl-Phe-Ala-(OMc)-fluoromethylketone) and zDEVD-fmk (benzyloxycarbonyl-Asp-Glu-Val-Asp-(OMe)-fluoromethylketone) were added into medium at 8 hr after transfection. zFA-fmk, zVAD-fmk and zDEVD-fmk were obtained from Enzyme Systems. At 24 hours after transfection, cells were fixed, stained for β-galactosidase as described [N. Inohara et al., “CLARP, a death effector domain-containing protein interacts with caspase-8 and regulates apoptosis,” Proc. Natl. Acad. Sci. USA 94:10717-10722 (1997a)] and assayed for morphological features of apoptosis. At least 300 hundred blue-staining cells were counted. Statistical significance was determined by one-way ANOVA followed by Student-Neuman-Keuls post-doc comparisons.
Nuclear staining with acridine-orange was performed as described [N. Inohara et al., “harakiri, a novel regulator of cell death, encodes a protein that activates apoptosis and interacts selectively with survival-promoting proteins Bcl-2 and Bcl-XL.,” EMBO J. 16:1686-1694 (1997b)]. Genomic DNA was extracted and analyzed for DNA fragmentation as described [X. Liu et al., “Apaf-1, a human protein homologous to C. elegans CED-4, participates in cytochrome c-dependent activation of caspase-3,” Cell 90:405-413 (1997)].

The test system of experiment [2] is 293T cells. As to the kind of experiment: Apoptosis assay, RICK co-transfection. Format: cell-based, human. The following applies: for caspase-8-induced apoptosis potentiated by RICK: 293T cells, zVAD-fmk 20 μM added at 8 hrs after transfection, p35 by expression plasmid. The protocol:
The total amount of transfected plasmid DNA was adjusted with pcDNA3 plasmid to be the same within individual experiments. After transfection, 293T cells were harvested at different times and lysed with 0.2% NP-40 isotonic lysis buffer [N. Inohara et al., Proc. Natl. Acad. Sci. U.S.A. 94:10717-10722 (1997)]. The B lymphocyte-derived BJAB cell line was stably trasnfected by electroporation with pcDNA3 or pcDNA3-Flag-RICK (K38M). After selection with […] (1 μg/ml), bulk cell lines were tested for RICK protein expression with anti-Flag antibody by flow cytometric analysis. For immunoprecipitation, 1 mg of soluble protein was incubated with 10 μg/ml of polyclonal anti-Flag, anti-myc or control antibody overnight at 4° C. and tagged proteins were immunoprecipitated with Protein A-Sepharose 4B (Zymed Laboratories Inc.). Immunoprecipitated proteins or total lysates were subjected to 12% SDS-polyacrylamide electrophoresis and immunoblotted with monoclonal antibodies (mAb) to HA (Boeringer Mannheim) or Flag (Kodak).
Apoptosis Assays: 5×10^5 293T cells were co-transfected with 0.2 μg of pcDNA3-β-gal plus each expression plasmid in triplicate by the calcium phosphate method as reported [N. Inohara et al., Proc. Natl. Acad. Sci. U.S.A. 94:10717-10722 (1997)]. In some experiments, 20 μM of the caspase inhibitor zVAD-fmk (Enzyme Systems Products) or 12.5 μl of medium from […] cells producing Fas ligand (Immunex Corporation, Seattle, Wash.) was added at 8 hrs after transfection. At 18 or 24 hours after transfection, cells were fixed, stained for β-galactosidase as described [N. Inohara et al., Proc. Natl Acad. Sci. U.S.A. 94:10717-10722 (1997)] and assayed for morphological features of apoptosis. At least 300 hundred blue-staining cells were counted. BJAB apoptosis induced by anti-Apol mAb was determined by flow cytometric analysis of nuclei stained with propidium iodide as described [R. Merino et al., J. Immunol. 155:3830-3838 (1995)]. Statistical significance was determined by one-way ANOVA followed by Student-Neuman-Keuls post-doc comparisons.

The target in experiment [3] is T1, Flag-tagged RICK (RIP-like interacting CLARP kinase), pcDNA3-Flag-RICK (human, UniProt O43353 11-540, limits assumed).
T1 construct: Entire open reading frame of RICK, expressed in 293T cells; also called CIPERK; Flag-CIPERK; not shown: N-terminal Flag tag
Put plainly: anti-Flag immunoprecipitation from co-transfected 293T cells, anti-HA immunoblot. In general terms: In western blotting, separated proteins are transferred to a membrane and probed.

In experiment [4] the test system is 293T cells. Put plainly: β-galactosidase apoptosis assay, ARC co-transfection. The format is cell-based, human. The protocol: Briefly, 2 μg of pcDNA3 or pcDNA3-ARC-Flag or -HA was co-transfected with 3 μg of pcDNA3 or caspase expression plasmids. Total amount of transfected plasmid DNA was always 5 μg. 293T cells were harvested after 22 hr and lysed with 0.2% NP-40 isotonic lysis buffer [Z. N. Oltvai et al., Cell 74:609-619 (1993)]. For immunoprecipitation, […] of soluble protein was incubated with 10 μg/ml of polyclonal anti-Flag, monoclonal anti-AU1 or polyclonal anti-HA antibody for 2 hr at 4° C. and tagged proteins were immunoprecipitated with Protein A-Sepharose 4B (Zymed Laboratories Inc., San Francisco, Calif.). Immunoprecipitates were subjected to 12% SDS-polyacrylamide electrophoresis and immunoblotted with anti-Flag, anti-AU1 or anti-HA antibodies. β-galactosidase apoptosis assay and Caspase-8 enzymatic assay: 5×10^5 293T cells were transfected with 0.3 μg of pcDNA3-β-gal plus each expression plasmid in triplicate. Cells were fixed 16 hrs after transfection, stained for β-galactosidase and assayed for morphological features of apoptosis [M. Muira et al., Cell 75:653-660 (1993)]. Statistical significance was determined by one-way ANOVA followed by Student-Neuman-Keuls post-doc comparisons. For caspase-8 enzymatic assay, 1.5×10^6 human 293T cells were co-transfected with pcDNA3, pcDNA3-ARC-Flag, pcDNA3-caspase-8 and pcDNA3-caspase-8-mt by a calcium phosphate method. Total amount of transfected plasmid DNA was always 2.5 μg. 293T cells were harvested 18hr after transfection and lysed with 0.2% NP-40 isotonic lysis buffer. Tagged proteins were immunoprecipitated and caspase activity was measured as described [N. Inohara et al., Proc. Natl. Acad. Sci. USA 94:10717-10722 (1997)].

Read-outs that look alike come from different tables or passages of the source. Peptide text beside a SMILES is read from it. * marks the point of attachment. Cbz = O=C(OCc1ccccc1)*; CH2F = FC*

T1 sequence (O43353 other isoform, or with tags, fused parts or gaps limits assumed): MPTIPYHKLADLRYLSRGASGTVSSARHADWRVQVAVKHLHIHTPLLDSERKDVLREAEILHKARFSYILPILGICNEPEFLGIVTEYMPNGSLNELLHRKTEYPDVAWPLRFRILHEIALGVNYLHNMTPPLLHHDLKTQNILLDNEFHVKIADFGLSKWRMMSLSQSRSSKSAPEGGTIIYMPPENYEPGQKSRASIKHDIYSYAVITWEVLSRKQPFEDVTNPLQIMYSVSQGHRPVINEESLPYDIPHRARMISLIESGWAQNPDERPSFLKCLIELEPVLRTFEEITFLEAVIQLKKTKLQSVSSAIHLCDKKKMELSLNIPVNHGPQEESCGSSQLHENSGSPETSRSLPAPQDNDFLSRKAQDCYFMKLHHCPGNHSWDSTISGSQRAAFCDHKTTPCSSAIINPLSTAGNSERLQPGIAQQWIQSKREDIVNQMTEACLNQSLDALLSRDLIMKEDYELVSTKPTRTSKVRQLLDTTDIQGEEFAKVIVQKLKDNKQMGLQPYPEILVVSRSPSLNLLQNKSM

For the molecule `COC(=O)CC[C@H](NC(=O)[C@H](CC(=O)OC)NC(=O)OCc1ccccc1)C(=O)N[C@H](C(=O)N[C@@H](CC(=O)OC)C(=O)CF)C(C)C` [zDEVD-fmk, benzyloxycarbonyl-Asp-Glu-Val-Asp-(OMe)-fluoromethylketone, reference compound], in experiment [1], the “killing activity of CIDE-A in presence of caspase inhibitors” value was “unaffected”.

Consider `COC(=O)CC(NC(=O)C(C)NC(=O)C(NC(=O)OCc1ccccc1)C(C)C)C(=O)CF` (stereo not drawn) [zVAD-fmk, benzyloxycarbonyl-Val-Ala-Asp-(OMe)-fluoromethylketone, reference compound] (Cbz-Val-Ala-Asp(OMe)-CH2F; configuration not given here), for which the “apoptosis induced by caspase-8” value in experiment [1] (293T cells, control experiment, same concentration (20 μM)) is recorded as “inhibited”. Besides, the “killing activity of CIDE-A in presence of caspase inhibitors” value in experiment [1] (293T cells, peptide inhibitors 20 μM added at 8 hr after transfection, CrmA by plasmid) is listed as “unaffected”. For the same molecule, the “caspase-8-induced apoptosis potentiated by RICK” value in experiment [2] is on record as “inhibited”.

B1: baculovirus p35: broad-based caspase inhibitor protein of baculovirus, expressed from plasmid (protein, UniProt P08160 1-299, looked up)
Early 35 kDa protein: MCVIFPVEIDVSQTIIRDCQVDKQTRELVYINKIMNTQLTKPVLMMFNISGPIRSVTRKNNNLRDRIKSKVDEQFDQLERDYSDQMDGFHDSIKYFKDEHYSVSCQNGSVLKSKFAKILKSHDYTDKKSIEAYEKYCLPKLVDERNDYYVAVCVLKPGFENGSNQVLSFEYNPIGNKVIVPFAHEINDTGLYEYDVVAYVDSVQFDGEQFEEFVQSLILPSSFKNSEKVLYYNEASKNKSMIYKALEFTTESSWGKSEKYNWKIFCNGFIYDKKSKVLYVKLHNVTSALNKNVILNTIK
Regarding B1, the “caspase-8-induced apoptosis potentiated by RICK” value in experiment [2] is on record as “inhibited”.

B2: CIDE-A (1-107): CIDE-A mutant containing the N-terminal half with homology to DFF45 (protein, UniProt O70302 1-107, looked up, fragment)
chain: METARDYAGALIRPLTFMGLQTKKVLLTPLIHPARPFRVSNHDRSSRRGVMASSLQELISKTLDVLVITTGLVTLVLEEDGTVVDTEEFFQTLRDNTHFMILEKGQK
B2: the “induction of apoptosis (killing) of 293T cells by expression” value in experiment [1] (293T cells) is listed as “did not”. Also, in experiment [1] (293T cells, co-expression), the “inhibition of CIDE-A-induced apoptosis by DFF45” value is given as “antagonized”.

B3: CIDE-A (108-200): CIDE-A mutant containing the C-terminal half (protein, UniProt O70302 108-200, looked up, fragment)
chain: WTPGSKYVPVCKQPKKSGIARVTFDLYRLNPKDFLGCLNVKATMYEMYSVSYDIRCTSFKAVLRNLLRFMSYAAQMTGQFLVYAGTYMLRVLG
For B3, in experiment [1] (293T cells), the “induction of apoptosis (killing) of 293T cells by expression” value is on record as “capable of inducing apoptosis” and the “killing activity compared with wild-type CIDE-A” value was “greater”.

B4: human caspase-2, epitope-tagged (enzyme, UniProt P42575 18-452, looked up)
chain: MAADRGRRILGVCGMHPHHQETLKKNRVVLAKQLLLSELLEHLLEKDIITLEMRELIQAKVGSFSQNVELLNLLPKRGPQAFDAFCEALRETKQGHLEDMLLTTLSGLQHVLPPLSCDYDLSLPFPVCESCPLYKKLRLSTDTVEHSLDNKDGPVCLQVKPCTPEFYQTHFQLAYRLQSRPRGLALVLSNVHFTGEKELEFRSGGDVDHSTLVTLFKLLGYDVHVLCDQTAQEMQEKLQNFAQLPAHRVTDSCIVALLSHGVEGAIYGVDGKLLQLQEVFQLFDNANCPSLQNKPKMFFIQACRGDETDRGVDQQDGKNHAGSPGCEESDAGKEKLPKMRLPTRSDMICGYACLKGTAAMRNTKRGSWYIEALAQVFSERACDMHVADMLVKVNALIKDREGYAPGTEFHRCKEMSEYCSTLCRHLYLFPGHPPT
notes: also called AU1-tagged caspase-2; not shown: lette
B4: the binding result in experiment [3] is on record as “no binding”.

B5: caspase-3, epitope-tagged (enzyme, UniProt P42574 1-277, looked up)
chain: MENTENSVDSKSIKNLEPKIIHGSESMDSGISLDNSYKMDYPEMGLCIIINNKNFHKSTGMTSRSGTDVDAANLRETFRNLKYEVRNKNDLTREEIVELMRDVSKEDHSKRSSFVCVLLSHGEEGIIFGTNGPVDLKKITNFFRGDRCRSLTGKPKLFIIQACRGTELDCGIETDSGVDDDMACHKIPVEADFLYAYSTAPGYYSWRNSKDGSWFIQSLCAMLKQYADKLEFMHILTRVNRKVATEFESFSFDATFHAKKQIPCIVSMLTKELYFYH
notes: also called pcDNA3-caspase-3-Flag; not shown: position and
With B5, the binding result in experiment [3] is reported as “no binding”.

B6: truncated form of ARC: truncated form of ARC that expressed the CARD domain (amino acid 1-106) (protein, UniProt O60936 1-106, looked up, fragment)
chain: MGNAQERPSETIDRERKRLVETLQADSGLLLDALLARGVLTGPEYEALDALPDAERRVRRLLLLVQGKGEAACQELLRCAQRTAGAPDPAWDWQHVGPGYRDRSYD
In the case of B6, in experiment [4], the “ability to suppress apoptosis induced by caspase-4, compared with full length ARC” value is recorded as “no significant difference” and the “ability to suppress apoptosis induced by caspase-8, compared with full length ARC” value is “no significant difference”.

B7: deletion mutant missing the C-terminal 165 amino acids: RICK deletion mutant missing the C-terminal 165 amino acids that span the CARD domain (protein, UniProt O43353 1-365, looked up, fragment)
chain: MNGEAICSALPTIPYHKLADLRYLSRGASGTVSSARHADWRVQVAVKHLHIHTPLLDSERKDVLREAEILHKARFSYILPILGICNEPEFLGIVTEYMPNGSLNELLHRKTEYPDVAWPLRFRILHEIALGVNYLHNMTPPLLHHDLKTQNILLDNEFHVKIADFGLSKWRMMSLSQSRSSKSAPEGGTIIYMPPENYEPGQKSRASIKHDIYSYAVITWEVLSRKQPFEDVTNPLQIMYSVSQGHRPVINEESLPYDIPHRARMISLIESGWAQNPDERPSFLKCLIELEPVLRTFEEITFLEAVIQLKKTKLQSVSSAIHLCDKKKMELSLNIPVNHGPQEESCGSSQLHENSGSPETSRSLP
For B7, in experiment [2] (co-expression with RICK deletion mutants), the “apoptosis of 293T cells induced by Fas, Fas plus FasL or caspase-8” value was “did not enhance apoptosis”.
